Reference: paper PMC3098241, “Amyloid-Associated Nucleic Acid Hybridisation” (PLoS ONE, 2011)

Tests used:
[1] = biological target: the molecule itself; experiment: circular dichroism + transmission electron microscopy; 0.8 mM STVIIE, 20 mM glycine pH 2.6, 20 C, spectra every 30 min for 24 h, without or with 242 nM 33mer DNA oligonucleotide (1:100 charge ratio); random coil to beta-sheet transition and fibrils
[2] = biological target: the molecule itself; experiment: X-ray fibre diffraction; dried aligned stalks from gels of peptide with salmon testis DNA or poly(A) RNA (5 mM (KL)5 + 5 mM DNA, pH 7, 150 mM NaCl; 16 mM (HL)5 + 10 mM poly(A) RNA pH 6; 1.6 mM TVQFHMH + 1.6 mM DNA pH 5.0; 16 mM TVQFHMH + 10 mM poly(A) RNA pH 6.0; 10 mM (KL)3 + 10 mM DNA; 5 mM (HL)3 + 5 mM DNA pH 6.2); cross-beta pattern as the sign of peptide self-assembly

| Protein | binding result [1] | binding result [2] |
| --- | --- | --- |
| STVIIE (source: synthetic peptide, bought: Severn Biotech (UK), HPLC-purified) | binds |  |
| TVQFHMH (source: synthetic peptide, bought: GL Biochem (PR China) or Peptide 2.0 (USA), 95% purity) |  | binds |
